Results as given in the supplement of paper PMC11246515.
± gives the standard deviation of the averaged measurements.

Assay: total protein half-life in vivo (active degradation + dilution); higher = more stable protein
[1] = E. coli NCM3722 delta-clpP delta-lon delta-hslV, growth: N-lim chemostat, doubling time 6 h
[2] = E. coli NCM3722 delta-clpP, growth: N-lim chemostat, doubling time 6 h
[3] = E. coli NCM3722 delta-hslV, growth: N-lim chemostat, doubling time 6 h
[4] = E. coli NCM3722 delta-smpB, growth: N-lim chemostat, doubling time 6 h
[5] = wild type E. coli NCM3722, growth: C-lim chemostat, doubling time 3 h
[6] = wild type E. coli NCM3722, growth: C-lim chemostat, doubling time 6 h
[7] = wild type E. coli NCM3722, growth: C-lim chemostat, doubling time 12 h
[8] = wild type E. coli NCM3722, growth: N-lim chemostat, doubling time 6 h
[9] = wild type E. coli NCM3722, growth: N-lim chemostat, doubling time 12 h
[10] = wild type E. coli NCM3722, growth: P-lim chemostat, doubling time 6 h
[11] = wild type E. coli NCM3722, growth: P-lim chemostat, doubling time 12 h
[12] = E. coli NCM3722 delta-lon, growth: N-lim chemostat, doubling time 6 h

Question: With “MKTAYIAKQRQISFVKSHFSRQLEERLGLIEVQAPILSRVGDGTQDNLSGCEKAVQVKVKALPDAQFEVVHSLAKWKRQTLGQHDFSAGEGLYTHMKALRPDEDRLSPLHSVYVDQWDWERVMGDGERQFSTLKSTVEAIWAGIKATEAAVSEEFGLAPFLPDQIHFVHSQELLSRYPDLDAKGRERAIAKDLGAVFLVGIGGKLSDGHRHDVRAPDYDDWSTPSELGHAGLNGDILVWNPVLEDAFELSSMGIRVDADTLKHQLALTGDEDRLELEWHQALLRGEMPQTIGGGIGQSRLTMLLLQLPHIGQVQCGVWPAAVRESVPSLL” as the sequence, how does the “total protein half-life in vivo” value [1] read?
Answer: 2.59 ± 0.04 h

Question: What about the “total protein half-life in vivo” value [2] of the same sequence?
Answer: 4.18 ± 2.2 h

Question: What about the “total protein half-life in vivo” value [3] of the same sequence?
Answer: 3.06 ± 0.71 h

Question: What about the “total protein half-life in vivo” value [4] of the same sequence?
Answer: 2.771 ± 0.0098 h

Question: And the “total protein half-life in vivo” value [5]?
Answer: 2.53 ± 0.085 h

Question: What about the “total protein half-life in vivo” value [6] of the same sequence?
Answer: 2.9 ± 0.16 h

Question: And the “total protein half-life in vivo” value [7]?
Answer: 5.26 ± 0.4 h

Question: What about the “total protein half-life in vivo” value [8] of the same sequence?
Answer: 2.29 ± 0.19 h

Question: What about the “total protein half-life in vivo” value [9] of the same sequence?
Answer: 4.02 ± 1 h

Question: And the “total protein half-life in vivo” value [10]?
Answer: 2.37 ± 0.58 h

Question: And the “total protein half-life in vivo” value [11]?
Answer: 5.24 ± 1.9 h

Question: For “MAQIDFRKKINWHRRYRSPQGVKTEHEILRIFESDRGRIINSPAIRRLQQKTQVFPLERNAAVRTRLTHSMEVQQVGRYIAKEILSRLKELKLLEAYGLDELTGPFESIVEMSCLMHDIGNPPFGHFGEAAINDWFRQRLHPEDAESQPLTDDRCSVAALRLRDGEEPLNELRRKIRQDLCHFEGNAQGIRLVHTLMRMNLTWAQVGGILKYTRPAWWRGETPETHHYLMKKPGYYLSEEAYIARLRKELNLALYSRFPLTWIMEAADDISYCVADLEDAVEKRIFTVEQLYHHLHEAWGQHEKGSLFSLVVENAWEKSRSNSLSRSTEDQFFMYLRVNTLNKLVPYAAQRFIDNLPAIFAGTFNHALLEDASECSDLLKLYKNVAVKHVFSHPDVERLELQGYRVISGLLEIYRPLLSLSLSDFTELVEKERVKRFPIESRLFHKLSTRHRLAYVEAVSKLPSDSPEFPLWEYYYRCRLLQDYISGMTDLYAWDEYRRLMAVEQ”, which “total protein half-life in vivo” value [1] is on record?
Answer: 5.23 ± 0.2 h

Question: And the “total protein half-life in vivo” value [2]?
Answer: 5.726 ± 0.025 h

Question: What about the “total protein half-life in vivo” value [3] of the same sequence?
Answer: 6.52 ± 1.8 h

Question: And the “total protein half-life in vivo” value [12]?
Answer: 5.63 ± 0.46 h

Question: And the “total protein half-life in vivo” value [4]?
Answer: 5.16 ± 0.065 h

Question: And the “total protein half-life in vivo” value [5]?
Answer: 3.281 ± 0.016 h

Question: What about the “total protein half-life in vivo” value [6] of the same sequence?
Answer: 6.17 ± 0.39 h

Question: What about the “total protein half-life in vivo” value [7] of the same sequence?
Answer: 11.6 ± 0.46 h

Question: And the “total protein half-life in vivo” value [8]?
Answer: 6.14 ± 1.6 h

Question: And the “total protein half-life in vivo” value [9]?
Answer: 11 ± 0.68 h

Question: What about the “total protein half-life in vivo” value [10] of the same sequence?
Answer: 5.52 ± 0.37 h

Question: What about the “total protein half-life in vivo” value [11] of the same sequence?
Answer: 12.2 ± 0.22 h

Question: With “MLRVYHSNRLDVLEALMEFIVERERLDDPFEPEMILVQSTGMAQWLQMTLSQKFGIAANIDFPLPASFIWDMFVRVLPEIPKESAFNKQSMSWKLMTLLPQLLEREDFTLLRHYLTDDSDKRKLFQLSSKAADLFDQYLVYRPDWLAQWETGHLVEGLGEAQAWQAPLWKALVEYTHQLGQPRWHRANLYQRFIETLESATTCPPGLPSRVFICGISALPPVYLQALQALGKHIEIHLLFTNPCRYYWGDIKDPAYLAKLLTRQRRHSFEDRELPLFRDSENAGQLFNSDGEQDVGNPLLASWGKLGRDYIYLLSDLESSQELDAFVDVTPDNLLHNIQSDILELENRAVAGVNIEEFSRSDNKRPLDPLDSSITFHVCHSPQREVEVLHDRLLAMLEEDPTLTPRDIIVMVADIDSYSPFIQAVFGSAPADRYLPYAISDRRARQSHPVLEAFISLLSLPDSRFVSEDVLALLDVPVLAARFDITEEGLRYLRQWVNESGIRWGIDDDNVRELELPATGQHTWRFGLTRMLLGYAMESAQGEWQSVLPYDESSGLIAELVGHLASLLMQLNIWRRGLAQERPLEEWLPVCRDMLNAFFLPDAETEAAMTLIEQQWQAIIAEGLGAQYGDAVPLSLLRDELAQRLDQERISQRFLAGPVNICTLMPMRSIPFKVVCLLGMNDGVYPRQLAPLGFDLMSQKPKRGDRSRRDDDRYLFLEALISAQQKLYISYIGRSIQDNSERFPSVLVQELIDYIGQSHYLPGDEALNCDESEARVKAHLTCLHTRMPFDPQNYQPGERQSYAREWLPAASQAGKAHSEFVQPLPFTLPETVPLETLQRFWAHPVRAFFQMRLQVNFRTEDSEIPDTEPFILEGLSRYQINQQLLNALVEQDDAERLFRRFRAAGDLPYGAFGEIFWETQCQEMQQLADRVIACRQPGQSMEIDLACNGVQITGWLPQVQPDGLLRWRPSLLSVAQGMQLWLEHLVYCASGGNGESRLFLRKDGEWRFPPLAAEQALHYLSQLIEGYREGMSAPLLVLPESGGAWLKTCYDAQNDAMLDDDSTLQKARTKFLQAYEGNMMVRGEGDDIWYQRLWRQLTPETMEAIVEQSQRFLLPLFRFNQS” as the sequence, how does the “total protein half-life in vivo” value [1] read?
Answer: 5.23 ± 0.17 h

Question: And the “total protein half-life in vivo” value [2]?
Answer: 4.28 ± 0.21 h

Question: What about the “total protein half-life in vivo” value [3] of the same sequence?
Answer: 3.58 ± 0.068 h

Question: What about the “total protein half-life in vivo” value [12] of the same sequence?
Answer: 4.13 ± 0.12 h

Question: What about the “total protein half-life in vivo” value [4] of the same sequence?
Answer: 3.63 ± 0.41 h

Question: What about the “total protein half-life in vivo” value [5] of the same sequence?
Answer: 3.44 ± 0.61 h

Question: And the “total protein half-life in vivo” value [6]?
Answer: 5.57 ± 0.32 h

Question: What about the “total protein half-life in vivo” value [7] of the same sequence?
Answer: 13 ± 2.4 h

Question: And the “total protein half-life in vivo” value [8]?
Answer: 4.32 ± 0.95 h

Question: And the “total protein half-life in vivo” value [9]?
Answer: 6.21 ± 0.64 h

Question: What about the “total protein half-life in vivo” value [10] of the same sequence?
Answer: 6.1 ± 0.47 h

Question: What about the “total protein half-life in vivo” value [11] of the same sequence?
Answer: 11.3 ± 0.4 h

Question: Which “total protein half-life in vivo” value [1] does the source give for “MLTVKQIEAAKPKEKPYRLLDGNGLYLYVPVSGKKVWQLRYKIDGKEKILTVGKYPLMTLQEARDKAWTARKDISVGIDPVKAKKASSNNNSFSAIYKEWYEHKKQVWSVGYATELAKMFDDDILPIIGGLEIQDIEPMQLLEVIRRFEDRGAMERANKARRRCGEVFRYAIVTGRAKYNPAPDLADAMKGYRKKNFPFLPADQIPAFNKALATFSGSIVSLIATKVLRYTALRTKELRSMLWKNVDFENRIITIDASVMKGRKIHVVPMSDQVVELLTTLSSITKPVSEFVFAGRNDKKKPICENAVLLVIKQIGYEGLESGHGFRHEFSTIMNEHEWPADAIEVQLAHANGGSVRGIYNHAQYLDKRREMMQWWADWLDEKVE” here?
Answer: 6.44 ± 2.1 h

Question: And the “total protein half-life in vivo” value [2]?
Answer: 5.79 ± 0.58 h

Question: What about the “total protein half-life in vivo” value [3] of the same sequence?
Answer: 5.96 ± 0.24 h

Question: And the “total protein half-life in vivo” value [12]?
Answer: 5.37 ± 0.098 h

Question: And the “total protein half-life in vivo” value [4]?
Answer: 5.02 ± 0.39 h

Question: And the “total protein half-life in vivo” value [5]?
Answer: 3.123 ± 0.013 h

Question: And the “total protein half-life in vivo” value [6]?
Answer: 5.53 ± 0.077 h

Question: And the “total protein half-life in vivo” value [7]?
Answer: 10.3 ± 0.26 h

Question: What about the “total protein half-life in vivo” value [8] of the same sequence?
Answer: 5.503 ± 0.0091 h

Question: What about the “total protein half-life in vivo” value [10] of the same sequence?
Answer: 5.34 ± 0.46 h

Question: What about the “total protein half-life in vivo” value [11] of the same sequence?
Answer: 10.8 ± 1.7 h

Question: Which results are given for “MLNTLIVGASGYAGAELVTYVNRHPHMNITALTVSAQSNDAGKLISDLHPQLKGIVDLPLQPMSDISEFSPGVDVVFLATAHEVSHDLAPQFLEAGCVVFDLSGAFRVNDATFYEKYYGFTHQYPELLEQAAYGLAEWCGNKLKEANLIAVPGCYPTAAQLALKPLIDADLLDLNQWPVINATSGVSGAGRKAAISNSFCEVSLQPYGVFTHRHQPEIATHLGADVIFTPHLGNFPRGILETITCRLKSGVTQAQVAQVLQQAYAHKPLVRLYDKGVPALKNVVGLPFCDIGFAVQGEHLIIVATEDNLLKGAAAQAVQCANIRFGYAETQSLI”?
Answer: total protein half-life in vivo [1]: 3.94 ± 0.2 h; total protein half-life in vivo [2]: > 8 h; total protein half-life in vivo [3]: 3.34 ± 0.5 h; total protein half-life in vivo [12]: 4.24 ± 0.74 h; total protein half-life in vivo [4]: 3.24 ± 0.057 h; total protein half-life in vivo [5]: 2.67 ± 0.42 h; total protein half-life in vivo [6]: 5.7 ± 1.4 h; total protein half-life in vivo [7]: 9.58 ± 0.43 h; total protein half-life in vivo [8]: 3.24 h; total protein half-life in vivo [9]: 5.58 h; total protein half-life in vivo [10]: 5.06 ± 0.19 h; total protein half-life in vivo [11]: 9.57 ± 0.58 h
